Laboratory results taken from PMC10870365, “Dissection of protein and RNA regions required for SPEN binding to XIST A-repeat RNA”.

Target: T1, SPEN RRM 2-3 (Homo sapiens) (UniProt Q96T58)
T1 sequence: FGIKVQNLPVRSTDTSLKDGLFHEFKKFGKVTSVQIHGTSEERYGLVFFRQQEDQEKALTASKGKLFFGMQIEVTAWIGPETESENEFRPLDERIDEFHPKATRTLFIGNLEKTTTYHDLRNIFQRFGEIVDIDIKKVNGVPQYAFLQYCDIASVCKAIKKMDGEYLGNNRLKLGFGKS
Assay: EMSA
Conditions: EMSA: 20 mM Tris-HCl pH 7.5, 150 mM KCl, 5 mM MgCl2, 10% glycerol, room temperature 30 min, 2 nM each labeled RNA (multiplexed), 4.5% TBE native gel

Sequence	Kd
GGGCUGCGGAUACCUGGUUUUAUUAUUUUUUCUUUGCCCAACGGGGCCGUGGAUACCUGCCUUUUAAUUCUUUUUUAUUCGCCCAUCGGGGCCGCGGAUACCUGCUUUUUAUUUUUUUUUCCUUAGCCCAUCGGGGUAUCGGAUACCUGCUGAUUCCCUUCCCCUCUGAACCCCCAACACUCUGGCCCAUCGGGGUGACGGAUAUCUGCUUUUUAAAAAUUUUCUUUUUUUGGCCCAUCGGGGCUUCGGAUACCUGCUUUUUUUUUUUUUAUUUUUCCUUGCCCAUCGGGGCCUCGGAUACCUGCUUUAAUUUUUGUUUUUCUGGCCCAUCGGGGCCGCGGAUACCUGCUUUGAUUUUUUUUUUUCAUCGCCCAUCGGUGCU [XIST A-full]	1.05 µM
GUACCAGGUAUGUGAUGACAUCAGCCGACGCCUGGCACUGCUGCAGGAACAGUGGGCUGGAGGAAAGUUGUCAAUACCUGUAAAGAAGAGAAUGGCUCUACUGGUGCAAGAGCUUUCAAGCCACCGGUGGGACGCAGCAGAUGACAUCCACCGCUCCCUCAUGGUUGACCAUGUGACUGAGGUCAGUCAGUGGAUGGUAGGAGUUAAAAGAUUAAUUGCAGAAAAGAGGAGUCUGUUUUCAGAGGAGGCAGCCAAUGAAGAGAAAUCUGCAGCCACAGCUGAGAAGAACCAUACCAUACCAGGCUUCCAGCAGGCUUCAUAAUCCUCGGUUCCCCAGACUCACCGGACACCAUCUCCU [SRA]	5.57 µM
